From PMC6181439 come the findings set out here.

This assay concerns the target Recombinant mouse PrP lacking FT (90-230) (mouse) (UniProt P04925). Briefly: SPR. To be noted: bispecific antibody.

On to “scPOM-bi, POM1-POM2 bispecific single chain antibody”, for which the Kd was determined as 3.6 nM and the koff stood at 0.00031 s⁻¹.
